Measured values taken from patent US8419708B2, “Transdermal drug administration apparatus having microneedles” (Hisamitsu Pharmaceuticals Co., Inc., priority 2006, dated 2013).

Experiments:
Assay type in all cases: in vitro ADME, hairless mice
[1] = Skin permeation with calcein sodium coating and dissolving solution in combination
Description: A transdermal drug administration apparatus having microneedles of FIG. 9 was used. 70 mg of calcein sodium as a drug was mixed with 930 μL of a 5% aqueous polymer (polyvinyl pyrrolidone, dextran) solution. The whole surface of microneedles was coated with 25 μL of the solution. The applied solution was dried at room temperature for 12 hours. Moreover, no polymer was added to a coating agent containing only water.
(§1) To measure the amount of permeation, the skin was ablated from the trunks of hairless mice and attached to vertical acrylic cells (2.54 cm^2) with the dermis facing a receptor layer. The cells were loaded in a thermostat set to 37° C. The transdermal drug administration apparatus having microneedles of the present invention was affixed to the stratum corneum. Sampling was conducted at a speed of 5.5 mL/hr. after 1 hour and 2 hours and subsequently at 2-hour intervals until the 6th hour. A phosphate-buffered saline (PBS) was used in the receptor layer. A drug content in the receptor solution obtained each time was measured with a fluorophotometer (excitation: 485, fluorescence: 538).
(§2) Animal type: hairless mice (n=3)
(§3) Receptor solution: 4 mL of PBS (Sampling volume: 200 μL/time)
(§4) Area: 2.54 cm^2 (however, the M.N substrate itself is 1 cm^2)
(§5) Dissolving solution: a saline was added dropwise from a dissolving solution reservoir.

[2] = Skin permeation with drug coating-water-soluble polymer and dissolving solution in combination; conditions: FIG. 14; for skin permeability: 20 μL dissolving solution in combination
Description: A transdermal drug administration apparatus having microneedles of FIG. 9 was used. 400 mg of BSA (bovine serum albumin) and 400 mg of FITC-BSA (fluorescently labeled bovine serum albumin) as drugs were dissolved in 5 mL of water. Likewise, 800 mg of a polymer (PEO, PVA117) was dissolved in 5 mL of water. Both of the solutions were mixed in equal amounts to prepare a coating solution. The whole surface of microneedles was coated with 25 μL of the coating solution. The applied solution was dried with a drier for 30 minutes. Moreover, no polymer was added to a coating agent containing only water.
as §1, with “8th” for “6th”, “496,” for “485,”, “517).” for “538).”
as §2
Receptor solution: 4 mL of PBS (Sampling volume: 500 μL/time)
as §4, §5
PEO: polyethylene oxide (molecular weight: 900,000, concentration: 2.5%)
PVA117S: polyvinyl alcohol (completely saponified, KURARAY CO., LTD.)

[3] = Skin permeation with drug-coated microneedles and dissolving solution in combination (vertical acrylic cells); conditions: FIG. 12
Description: A transdermal drug administration apparatus having microneedles of FIG. 9 was used. 30% aqueous solution was prepared with 100 mg of BSA (bovine serum albumin) and […] of FITC-BSA (fluorescently labeled bovine serum albumin) as drugs and 350 μL of water and used as a mother liquid to prepare 10% and 20% aqueous solutions. The whole surface of microneedles was coated with each of the prepared 10 to 30% aqueous solutions in an amount of 30 μL/patch. The applied solution was dried at room temperature for 12 hours to prepare 3 kinds in total of coated microneedles (→3 mg/patch, 6 mg/patch, and 9 mg/patch) (FIG. 12).
The drug injection models used as controls are shown (FIG. 13), 15 μL of a 20% aqueous drug (FITC-BSA) solution was added to a dissolving solution without coating microneedles with the drug, and after coating with a 5% aqueous PVA203 solution in an amount of 30 μL/patch, the drug was added.
as §1, with “8th” for “6th”
as §2, §3, §4, §5
PVA203: polyvinyl alcohol (partially saponified, polymerization degree: 300, KURARAY CO., LTD.)

Row | permeability-promoting effects by dropwise addition of the dissolving solution ([1]; dextran used in the coating) | permeability-promoting effects by dropwise addition of the dissolving solution ([1]; polyvinyl pyrrolidone used in the coating) | Compound | permeability-promoting effects by dropwise addition of the dissolving solution ([1]; regardless of the presence or absence of the polymer in the coating, FIGS. 15-17) | skin permeability ([2]; only water, no polymer in coating composition) | skin permeability ([2]; polyethylene oxide (molecular weight 900,000) mixed into coating composition) | skin permeability-promoting effects brought about by the addition of the dissolving solution ([2]; poorly soluble polymer PVA117 mixed into coating composition) | effect of using the dissolving solution in combination ([3]; amount of drug coating 3 mg (of 3, 6 and 9 mg), dissolving solution fixed to 20 μL) | synergistic effect brought about by the dissolving solution ([3]; amount of drug coating 9 mg, dissolving solution fixed to 20 μL) | skin permeability ([3]; drug-coated microneedles, 20 μL dissolving solution (saline) used in combination)
1 | promoting effects were also observed | promoting effects were also observed | O=C(O)CN(CC(=O)O)Cc1cc2c(cc1O)Oc1cc(O)c(CN(CC(=O)O)CC(=O)O)cc1C21OC(=O)c2ccccc21 [calcein sodium] | Permeability-promoting effects were observed | – | – | – | – | – | –
2 | – | – | FITC-BSA: fluorescently labeled bovine serum albumin, used as model drug in the microneedle coating (mixed with BSA) | – | increased | increased | no skin permeability-promoting effects | highest | no synergistic effect | increased
